Measurements as given in patent publication US20020102534A1 (INSTITUT PASTEUR AND INSTITUT NATIONAL DE LA SANTE ET DE LA …, published 2002).

B1: truncated HCV capsid protein C-delta-115 (other)
chain: MSTNPKPQRKTKRNTNRRPQDVKFPGGGQIVGGVYLLPRRGPRLGVRATRKTSERSQPRGRRQPIPKARRPEGRTWAQPGYPWPLYGNEGCGWAGWLLSPRGSRPSWGPTDPRRR
notes: also called CD115; CoreD115
B2: HCV core protein, full-length (capsid) (other)
chain: MSTNPKPQRKTKRNTNRRPQDVKFPGGGQIVGGVYLLPRRGPRLGVRATRKTSERSQPRGRRQPIPKARRPEGRTWAQPGYPWPLYGNEGCGWAGWLLSPRGSRPSWGPTDPRRRSRNLGKVIDTLTCGFADLMGYIPLVGAPLGGAARALAHGVRVLEDGVNYATGNLPGCSFSIFLLALLSCLTVPASA
notes: mature; also called capsid protein; p22

Biological target: the molecule itself
Experiment: yeast two-hybrid bait-prey matrix (LacZ and HIS3 reporters)

Protein	binding result
B1	binds
B2	no binding
